Here are results for 9 molecules from US20040091855A1, “Method for production of antivirals by use of HIV-derived HR1 peptides, and trimers formed therefrom” (priority 2002, published 2004).

By Kd is commonly meant the concentration at which binding is half-saturated. A lower Kd goes with a tighter complex. By IC50 is commonly meant the concentration needed to halve the response being measured.

Experiment [1] deals with HIV-1 gp41 of strain HIV IIIB (on infectious virus) (HIV-1 strain HIVIIIB), P04578. The experiment can be described thus: cell-based or functional assay.
Experiment [2] concerns the target HR2 peptide having the amino acid sequence of SEQ ID NO:33 (HIV-1). As to the kind of experiment: surface plasmon resonance (Biacore protein chip assay). Background: Surface plasmon resonance follows binding to a sensor surface in real time, without labels.
Experiment [3] has as its target synthetic peptide having the amino acid sequence of SEQ ID NO:36 (trimers formed therefrom) (HIV-1 (HIVIIIB)). The experiment can be described thus: fluorescence polarization competition; 50 nM trimers of SEQ ID NO:36, 0.2 nM fluorescein-labeled HR2 peptide as competitor. On the technique in general: In fluorescence polarisation assays a small probe gives low polarisation when free and higher when bound to something large.

As for QARQLVSGLVQQQNNILRALEATQHAVQALVWGVKQLQARVLALERYIK (modifications not checked) [synthetic peptide having the amino acid sequence of SEQ ID NO:35], in experiment [1], the Antiviral activity against HIV IIIB, IC50 (MAGI/cMAGI infectivity assay) came out at 0.14 µg/mL and the Antiviral activity against HIV IIIB, IC90 (MAGI/cMAGI infectivity assay) turned out to be 0.69 µg/mL. The molecule also came in with a Kd in experiment [2] of 21.8 nM. As for QARQLVSGLVQQQNNILRALEATQHAVQALVWGVRQLQARVLALERYIK (modifications not checked) [synthetic peptide having the amino acid sequence of SEQ ID NO:37], the Antiviral activity against HIV IIIB, IC50 (MAGI/cMAGI infectivity assay) in experiment [1] is < 0.78 µg/mL. In experiment [1], QARQLVSGLVQQQNNILRALEATQHLVQLLVWGVKQLQARVLALERYIK (modifications not checked) [peptide having the amino acid sequence of SEQ ID NO:41] had an Antiviral activity against HIV IIIB, IC50 (MAGI/cMAGI infectivity assay) of 3.89 µg/mL and an Antiviral activity against HIV IIIB, IC90 (MAGI/cMAGI infectivity assay) of 14.5 µg/mL.

B1: synthetic peptide having the amino acid sequence of SEQ ID NO:39 (peptide)
peptide: QARQLVSGLVQQQNNILRALEAQQHALQATVWGIKQLQARVLALERYIKDQ
modifications: not checked
Regarding B1, in experiment [1], the Antiviral activity against HIV IIIB, IC50 (MAGI/cMAGI infectivity assay) amounted to 0.26 µg/mL and the Antiviral activity against HIV IIIB, IC90 (MAGI/cMAGI infectivity assay) is 1.2 µg/mL.

As to WMEWDREINNYTSLIHSLIEESQNQQEKNEQELLEL (modifications not checked) [HR2 peptide having the amino acid sequence of SEQ ID NO:33], the IC50 in experiment [3] was determined as 68 nM. Turning to QQQNNLLRAIEAQQHLLQLTVWGIKQLQARILAVERYLKDQ (modifications not checked) [HR1 peptide of native sequence having the amino acid sequence of SEQ ID NO:27], in experiment [1], the Antiviral activity vs. HIV IIIB, IC50 (MAGI/cMAGI infectivity assay) is 4.69 µg/mL and the Antiviral activity vs. HIV IIIB, IC90 (MAGI/cMAGI infectivity assay) was 23.2 µg/mL.

In experiment [1], QQQNNLLRAIEAQQHLLQLTAWGIKQLQARILAVERYLKDQ (modifications not checked) [synthetic peptide having the amino acid sequence of SEQ ID NO:29] displayed an Antiviral activity vs. HIV IIIB, IC50 (MAGI/cMAGI infectivity assay) of 2.81 µg/mL and an Antiviral activity vs. HIV IIIB, IC90 (MAGI/cMAGI infectivity assay) of 5.86 µg/mL.

In experiment [1], QQQNNLLRAIEAQQHLLQLTVFGIKQLQARILAVERYLKDQ (modifications not checked) [synthetic peptide having the amino acid sequence of SEQ ID NO:43] registered an Antiviral activity vs. HIV IIIB, IC50 (MAGI/cMAGI infectivity assay) of 1.34 µg/mL and an Antiviral activity vs. HIV IIIB, IC90 (MAGI/cMAGI infectivity assay) of 3.81 µg/mL.

B2: synthetic peptide having the amino acid sequence of SEQ ID NO:38 (peptide)
peptide: QARQLLSGIVQQQNNLLRAIEATQHAVQALVWGVKQLQARVLALERYIKDQ
modifications: not checked
In experiment [1], B2 had an Antiviral activity against HIV IIIB, IC50 (MAGI/cMAGI infectivity assay) of 0.18 µg/mL and an Antiviral activity against HIV IIIB, IC90 (MAGI/cMAGI infectivity assay) of 0.88 µg/mL.
